Publication PMC8383266 (Biochemistry, 2021)

Assays:
[1] = test system: CC1(C)S[C@@H]2[C@H](NC(=O)[C@H](N)c3ccccc3)C(=O)N2[C@H]1C(=O)O; experiment: purified protein; conditions: pH 6.4; 25.0 °C
[2] = test system: O=C(Cc1cccs1)N[C@@H]1C(=O)N2C(C(=O)O)=C(/C=C/c3ccc([N+](=O)[O-])cc3[N+](=O)[O-])CS[C@H]12; experiment: purified protein; conditions: pH 6.4; 25.0 °C

Q: With (Mycobacterium tuberculosis H37Rv) as the substance, how does the kcat [1] read?
A: 2.1 s⁻¹

Q: And the kcat/Km [1]?
A: 17000 M⁻¹ s⁻¹

Q: And the Km [2]?
A: 560 µM

Q: What about the kcat [2] of the same substance?
A: 220 s⁻¹

Q: And the kcat/Km [2]?
A: 390000 M⁻¹ s⁻¹
